Results on five molecules are retold here after patent US20150329626A1 (Eli Lilly, published 2015).

Changes are numbered by the printed parent chain. Some results are limits rather than exact numbers.

To fix the notation:
T1: human Ang2 (human, UniProt O15123 19-496)
T1 construct: also called hAng2; human angiopoietin-2
T1 sequence: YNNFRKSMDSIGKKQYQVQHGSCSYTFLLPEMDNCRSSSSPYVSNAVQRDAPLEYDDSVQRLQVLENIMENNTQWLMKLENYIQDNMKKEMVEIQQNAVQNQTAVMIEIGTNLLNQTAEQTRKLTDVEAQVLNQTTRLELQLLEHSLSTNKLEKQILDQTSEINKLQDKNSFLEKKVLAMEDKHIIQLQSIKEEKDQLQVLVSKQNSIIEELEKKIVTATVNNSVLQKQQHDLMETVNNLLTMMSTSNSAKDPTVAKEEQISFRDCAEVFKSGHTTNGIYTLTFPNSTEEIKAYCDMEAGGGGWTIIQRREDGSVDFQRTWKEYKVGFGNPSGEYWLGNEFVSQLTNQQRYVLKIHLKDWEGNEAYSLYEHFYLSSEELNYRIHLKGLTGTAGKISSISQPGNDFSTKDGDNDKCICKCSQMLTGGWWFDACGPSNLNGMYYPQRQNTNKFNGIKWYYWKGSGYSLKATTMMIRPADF

B1: Compound A (bispecific antibody, human IgG1, kappa)
heavy: not shown
light: DIQMTQSPSSVSASIGDRVTITCRASQGIDNWLGWYQQKPGKAPKLLIYDASNLDTGVPSRFSGSGSGTYFTLTISSLQAEDFAVYFCQQAKAFPPTFGGGTKVDIKRTVAAPSVFIFPPSDEQLKSGTASVVCLLNNFYPREAKVQWKVDNALQSGNSQESVTEQDSKDSTYSLSSTLTLSKADYEKHKVYACEVTHQGLSSPVTKSFNRGEC
B2: Compound B (bispecific antibody, human IgG4 S228P, kappa, F234A L235A)
heavy: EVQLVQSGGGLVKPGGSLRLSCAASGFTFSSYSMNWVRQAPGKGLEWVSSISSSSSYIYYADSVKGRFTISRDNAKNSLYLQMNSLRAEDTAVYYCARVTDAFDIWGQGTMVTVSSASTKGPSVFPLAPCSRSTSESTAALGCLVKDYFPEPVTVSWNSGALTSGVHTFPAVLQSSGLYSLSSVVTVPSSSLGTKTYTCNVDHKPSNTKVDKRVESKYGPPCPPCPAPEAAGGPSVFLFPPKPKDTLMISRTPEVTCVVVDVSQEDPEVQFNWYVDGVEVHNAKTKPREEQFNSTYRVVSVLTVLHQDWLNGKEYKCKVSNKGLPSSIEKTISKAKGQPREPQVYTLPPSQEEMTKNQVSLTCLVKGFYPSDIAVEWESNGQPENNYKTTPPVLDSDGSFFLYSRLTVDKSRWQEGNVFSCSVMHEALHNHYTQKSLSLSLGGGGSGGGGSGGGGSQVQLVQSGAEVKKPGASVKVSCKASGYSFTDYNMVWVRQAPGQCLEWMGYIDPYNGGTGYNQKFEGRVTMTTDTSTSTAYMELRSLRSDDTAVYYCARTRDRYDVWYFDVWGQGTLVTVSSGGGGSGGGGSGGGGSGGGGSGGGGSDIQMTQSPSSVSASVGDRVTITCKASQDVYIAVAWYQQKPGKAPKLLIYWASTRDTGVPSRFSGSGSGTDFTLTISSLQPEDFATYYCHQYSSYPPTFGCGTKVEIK
light: B1 light
B3: Compound E (bispecific antibody, human IgG4 S228P, kappa, F234A L235A)
heavy: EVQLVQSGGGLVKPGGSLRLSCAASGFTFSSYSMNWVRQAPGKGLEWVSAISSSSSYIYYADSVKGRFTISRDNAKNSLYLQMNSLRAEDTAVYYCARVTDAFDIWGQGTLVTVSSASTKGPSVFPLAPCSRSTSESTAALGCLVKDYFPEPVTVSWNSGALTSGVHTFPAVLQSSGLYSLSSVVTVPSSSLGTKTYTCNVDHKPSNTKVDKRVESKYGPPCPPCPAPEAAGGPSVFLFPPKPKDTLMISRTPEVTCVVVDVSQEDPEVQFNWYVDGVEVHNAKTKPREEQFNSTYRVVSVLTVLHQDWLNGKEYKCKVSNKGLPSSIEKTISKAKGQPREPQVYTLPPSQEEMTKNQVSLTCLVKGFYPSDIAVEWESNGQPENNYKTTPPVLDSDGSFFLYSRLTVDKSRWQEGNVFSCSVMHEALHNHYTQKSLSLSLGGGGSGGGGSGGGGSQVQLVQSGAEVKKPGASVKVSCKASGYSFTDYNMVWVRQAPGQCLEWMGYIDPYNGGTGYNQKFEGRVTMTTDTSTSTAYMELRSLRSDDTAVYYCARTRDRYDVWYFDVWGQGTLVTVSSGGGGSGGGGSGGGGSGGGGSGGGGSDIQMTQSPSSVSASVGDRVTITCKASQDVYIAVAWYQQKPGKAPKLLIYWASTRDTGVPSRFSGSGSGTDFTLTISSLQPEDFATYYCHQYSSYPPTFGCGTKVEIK
light: DIQMTQSPSSVSASVGDRVTITCRASQGIDNWLTWYQQKPGKAPKLLIVEASSLQSGVPSRFSGSGSGTDFTLTISSLQPEDFATYYCQQAKAFPPTFGGGTKVDIKRTVAAPSVFIFPPSDEQLKSGTASVVCLLNNFYPREAKVQWKVDNALQSGNSQESVTEQDSKDSTYSLSSTLTLSKADYEKHKVYACEVTHQGLSSPVTKSFNRGEC
B4: Compound D (bispecific antibody, human IgG4 S228P, kappa, F234A L235A)
heavy: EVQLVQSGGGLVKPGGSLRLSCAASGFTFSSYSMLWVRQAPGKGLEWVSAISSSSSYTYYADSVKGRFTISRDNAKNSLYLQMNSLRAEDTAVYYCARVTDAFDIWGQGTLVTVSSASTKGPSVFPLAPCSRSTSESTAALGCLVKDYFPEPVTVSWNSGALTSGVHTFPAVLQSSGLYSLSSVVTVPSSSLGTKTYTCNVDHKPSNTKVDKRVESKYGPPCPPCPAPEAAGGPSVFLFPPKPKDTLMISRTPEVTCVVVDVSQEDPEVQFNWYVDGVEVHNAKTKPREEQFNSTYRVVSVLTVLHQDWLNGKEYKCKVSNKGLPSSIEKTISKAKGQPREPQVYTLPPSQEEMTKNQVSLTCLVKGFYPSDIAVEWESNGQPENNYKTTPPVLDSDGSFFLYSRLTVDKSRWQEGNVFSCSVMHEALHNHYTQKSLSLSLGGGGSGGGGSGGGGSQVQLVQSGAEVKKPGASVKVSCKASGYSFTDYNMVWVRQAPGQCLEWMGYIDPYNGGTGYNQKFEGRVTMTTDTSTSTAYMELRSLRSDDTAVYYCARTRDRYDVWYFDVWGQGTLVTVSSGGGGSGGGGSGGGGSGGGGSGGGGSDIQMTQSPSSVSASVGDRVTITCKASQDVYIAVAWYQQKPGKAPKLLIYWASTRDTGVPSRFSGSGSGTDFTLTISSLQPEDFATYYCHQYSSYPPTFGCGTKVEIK
light: B3 light with A93R
B5: Compound C (bispecific antibody, human IgG4 S228P, kappa, F234A L235A)
heavy: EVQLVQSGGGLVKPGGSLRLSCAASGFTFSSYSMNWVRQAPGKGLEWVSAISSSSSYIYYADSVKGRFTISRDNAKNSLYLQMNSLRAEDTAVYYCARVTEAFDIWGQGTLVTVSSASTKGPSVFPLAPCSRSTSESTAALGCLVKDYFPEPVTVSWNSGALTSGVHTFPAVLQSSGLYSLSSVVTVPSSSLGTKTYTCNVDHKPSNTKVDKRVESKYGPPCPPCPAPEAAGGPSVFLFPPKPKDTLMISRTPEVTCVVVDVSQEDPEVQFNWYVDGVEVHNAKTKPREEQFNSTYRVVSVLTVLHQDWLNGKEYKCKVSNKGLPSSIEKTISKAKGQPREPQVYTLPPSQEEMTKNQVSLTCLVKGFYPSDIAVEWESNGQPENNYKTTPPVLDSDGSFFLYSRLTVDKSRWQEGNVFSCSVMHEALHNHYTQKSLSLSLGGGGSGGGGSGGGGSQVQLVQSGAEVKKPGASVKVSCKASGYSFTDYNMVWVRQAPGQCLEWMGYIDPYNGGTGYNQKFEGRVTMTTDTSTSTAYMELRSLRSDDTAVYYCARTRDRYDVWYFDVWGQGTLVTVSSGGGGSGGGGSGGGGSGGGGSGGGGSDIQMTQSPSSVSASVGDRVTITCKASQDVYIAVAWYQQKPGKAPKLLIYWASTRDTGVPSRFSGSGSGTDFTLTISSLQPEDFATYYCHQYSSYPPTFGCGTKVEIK
light: B3 light with Q27R, V49Y

The first assay addresses T1, human Ang2. The experiment in a line: Biacore SPR, 25 C, compound captured on Protein A, Ang2 as analyte.
Broadly, the Kd is the constant that tells how readily two partners part at equilibrium. Low readings indicate higher affinity, high ones lower affinity. By koff is commonly meant the first-order rate constant of dissociation. Low values mean slow dissociation, high ones fast dissociation. As usually defined, the kon is the second-order rate constant of association. Read a high kon as faster complex formation. B1 had a Kd of under 0.1 nM, a koff of under 1e-05 s⁻¹ and a kon of 183000 M⁻¹ s⁻¹.

Consider B2, for which the Kd was under 0.1 nM, the koff is under 1e-05 s⁻¹ and the kon was determined as 285000 M⁻¹ s⁻¹.

For B3, binding was put at a Kd of 0.407 nM, the koff is 9.7e-05 s⁻¹ and the kon turned out to be 239000 M⁻¹ s⁻¹.

The molecule B4 came in with a Kd of 0.489 nM, a koff of 8.6e-05 s⁻¹ and an association rate constant (kon) of 175000 M⁻¹ s⁻¹.

For B5, the Kd stood at 0.462 nM, the koff amounted to 0.000105 s⁻¹ and the kon amounted to 226000 M⁻¹ s⁻¹.

Another assay deals with T2, human VEGFR2 extracellular domain (human, UniProt P35968 20-764).
T2 construct: also called hVEGFR2-ECD; human VEGFR2-ECD
T2 sequence (P35968 20-764): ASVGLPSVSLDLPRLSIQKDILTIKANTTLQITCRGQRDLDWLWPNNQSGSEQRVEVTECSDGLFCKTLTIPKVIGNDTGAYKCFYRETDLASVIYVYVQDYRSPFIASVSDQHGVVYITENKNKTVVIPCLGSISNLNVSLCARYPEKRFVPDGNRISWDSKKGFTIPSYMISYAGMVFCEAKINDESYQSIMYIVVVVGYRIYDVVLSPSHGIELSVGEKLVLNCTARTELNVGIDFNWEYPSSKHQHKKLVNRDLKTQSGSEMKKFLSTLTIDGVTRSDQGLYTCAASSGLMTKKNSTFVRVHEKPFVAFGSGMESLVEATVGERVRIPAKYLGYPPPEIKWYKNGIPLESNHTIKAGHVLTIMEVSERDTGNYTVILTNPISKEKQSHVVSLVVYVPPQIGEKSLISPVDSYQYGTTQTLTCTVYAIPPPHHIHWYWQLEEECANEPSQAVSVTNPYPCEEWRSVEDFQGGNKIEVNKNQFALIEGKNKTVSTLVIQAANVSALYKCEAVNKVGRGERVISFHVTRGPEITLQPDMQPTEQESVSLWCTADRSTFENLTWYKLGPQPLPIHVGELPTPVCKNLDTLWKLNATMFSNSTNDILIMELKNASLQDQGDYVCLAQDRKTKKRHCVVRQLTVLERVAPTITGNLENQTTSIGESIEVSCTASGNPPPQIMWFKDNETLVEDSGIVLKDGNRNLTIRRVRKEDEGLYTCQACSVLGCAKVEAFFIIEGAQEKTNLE
The experiment in a line: Biacore SPR, 25 C, compound captured on Protein A, VEGFR2-ECD as analyte.
The molecule B1 returned a Kd of 0.711 nM, a koff of 4.8e-05 s⁻¹ and a kon of 68000 M⁻¹ s⁻¹.

For B2, the Kd was 0.513 nM, the koff was 4.1e-05 s⁻¹ and the kon stood at 81000 M⁻¹ s⁻¹.

Regarding B3, the Kd was 1.11 nM, the koff amounted to 3.5e-05 s⁻¹ and the kon was 32000 M⁻¹ s⁻¹.

Regarding B4, the affinity, expressed as Kd, was 0.86 nM; the koff stood at 2.9e-05 s⁻¹; the kon was 34000 M⁻¹ s⁻¹.

The molecule B5 gave a Kd of 0.528 nM, a koff of 2e-05 s⁻¹ and a kon of 38000 M⁻¹ s⁻¹.
